Positions count from the first letter of the chain named. Names and notes keep the numbering of the source. “Also recorded” adds a separate entry of the source.
B1: D261N (protein)
chain: MKVSALKEKVSALKEKVSALKEKVSALKEKVSALKEGSGGGSGGGSGGGSNSIALKNNTLWTGPKPEANCIIEYGKQNPDSKLTLILVKNGGIVNGYVTLMGASDYVNTLFKNKNVSINVELYFDATGHILPDSSSLKTDLELKYKQTADFSARGFMPSTTAYPFVLPNAGTHNENYIFGQCYYKASNGALFPLEVTVMLNKRLPDSRTSYVMTFLWSLNAGLAPETTQATLITSPFTFSYIREDD
B2: JO-1: recombinant protein with the Ad3 fiber knob and a domain for self-dimerization of trimeric knobs (SEQ ID NO:27) (protein)
chain: B1 chain with N188D
B3: JO-4 (protein)
chain: B1 chain with Y177F, N188D

Legend:
[1] = system: polarized colon cancer T84 cells; test: Transepithelial electrical resistance (TEER) permeability assay; assay type: cell-based; details: for Effect on TEER: 5 μg dimeric Ad3 fiber knob added 1 hour to apical chamber
Method: FIG. 5. Correlation of reduced DSG2 binding with the ability to open epithelial junctions. A) Transepithelial electrical resistance (TEER) measured on polarized colon cancer T84 cells. Cells were cultured in transwell chambers until the TEER was constant, i.e. tight junctions had formed. A total of 5 μg of dimeric Ad3 fiber knobs in PBS was then added for 1 hour to the apical chamber. TEER was measured at the indicated time points. N=6. For time points 1.5 and 4 hours the difference between JO-1 vs D261N and N186D was significant (p<0.01). The arrows indicate the addition and removal of Ad3 fiber knobs. B) Enhancement of irinotecan therapy. A total of 4×10^6 A549 cells were injected subcutaneously into CB17-SCID/beige mice. Once the tumor reached a volume of ˜100 mm^3 (day 15 after implantation), the mice were injected intravenously with 2 mg/kg JO-1, E299V, N186D, or PBS, followed by an intravenous injection of irinotecan (37.5 mg/kg) one hour later. The treatment was repeated on day 25. N=5. […] The difference between “irinotecan” vs “JO-1+irinotecan” was significant (p<0.01) from day 20 on.
FIG. 9. Analysis of dimeric Ad3 fiber knob mutants with increased affinity to DSG2. A) Competition of Ad3-GFP virus infection on HeLa cells with dimeric affinity-enhanced mutant Y250F and JO-1 (dimeric wt Ad3 fiber knob). The experimental setting is as described for FIG. 3C. left panel: percentage of GFP positive cells. Right panel: mean fluorescence intensity. N=3. The standard deviation was less than 10%. B) Competition of Ad3-GFP virus infection on HeLa cells by Ad3 knob mutants with enhanced DSG2 binding but without dimerization domain. 1.5×10^5 HeLa cells were seeded into 24 well plates. Cells were incubated with the Ad3 knob mutants at the increasing concentrations for one hour at room temperature. 100 pfu/cell of Ad3GFP virus were then added and GFP expression was analyzed 18 hours later. C) TEER on colon cancer T84 cells. The experimental setting was the same as for FIG. 5A. The TEER at 4 hours is shown. N=3.
A total of 5×10^5 T84 cells were seeded in 12 mm transwell inserts (PET membrane, with 0.4 μm pore size (Corning, N.Y.) and cultured for >14 days until transepithelial electrical resistance (TEER) was stable. Culture medium was changed every 2-3 days. The cells were exposed to DSG2 ligands (20 μg/ml) in adhesion medium (DMEM, 1% FBS, 2 mM MgCl2, 20 mM HEPES) for 15 min at room temperature and TEER was measured and calculated as described elsewhere (39).

[2] = Blood chemistry and blood cell counts after i.v. injection; assay type: in vivo, hDSG2 transgenic mice; details: for Blood chemistry / Blood cell counts: after i.v. injection; for Blood cell counts: N=3; for Time of nadir of lymphocyte and platelet counts: p.i.
Method: FIG. 11. Pharmacokinetics, toxicity, and immunogenicity of JO-4. A) Serum clearance of JO-1 and JO-4. hDSG2 transgenic mice with subcutaneous TC1-hDSG2 tumors (˜600 mm^3) were intravenously injected with JO-1 or JO-4 (2 mg/kg) and serum samples were analyzed for by ELISA. N=3. Note that the y-axis has a log scale. B) Lymphocyte and platelet counts in hDSG2/TC1-hDSG2 transgenic mice after JO-1 or JO-4 injection. N=3. C) Therapy studies in immunocompetent hDSG2 transgenic mice with TC1-hDSG2 tumors. When tumors reached a volume of ˜80 mm^3, JO-1 or JO-4 (2 mg/kg) or PBS was injected intravenously followed one hour later by PLD/Doxil (i.v. 1.5 mg/kg). Treatment was repeated as indicated by arrows. Tumors were then allowed to re-grow for about two weeks. From day 15 on serum anti-JO-1/J)-4 antibodies were detectable by ELISA. Two more treatment cycles were performed at day 28 and day 35. […] The difference between JO-1/PLD vs JO-4/PLD is significant from day 31 on. N=10.
Two of the affinity enhanced version of JO-1, Y293D and V250F were analyzed in in vivo assay. We called these mutants JO-2 and JO-4, respectively. The first study was performed in a xenograft model derived from A549 cells similar to the study described for FIG. 5B. […] Additional studies were performed in xenograft tumors derived from ovc316 cells (30, 32). Ovc316 cells are Her2/neu positive epithelial tumor cells derived from an ovarian cancer biopsy. These cells can undergo EMT and the reverse process, mesenchymal-to-epithelial-transition (MET), under specific conditions in vitro and in vivo. A subfraction of ovc316 cells that is positive for Nanog, CD133, and E-cadherin is enriched for cancer stem cells, i.e. self-renewing cells with pluripotent potential and tumor forming ability (30). Ovc316 cells therefore closely model the heterogeneity and plasticity seen in tumors in situ. […] Finally, we tested JO-4 in a model for triple-negative breast cancer (TNBC). TNBC is characterized by a lack or minimal expression of estrogen receptor (ER), progesterone receptor (PR) and the absence of Her2/neu overexpression. TNBC accounts for 15% of all breast cancers. Overall survival is poor compared with that in patients who have other phenotypes. A characteristic feature of TNBC is high levels of DSG2 and epithelial junctions. Promising clinical results in the treatment of TNBS have been achieved with nanoparticle, albumin-conjugated paclitaxel (nab-paclitaxel/Abraxane™) alone or in combination with the EGFR-targeting mAb cetuximab/Erbitux™ (38). […] Because of its therapeutic relevance, we further studied JO-4 in an adequate mouse tumor model. […] These mice were subcutaneously implanted with syngeneic TC1-hDSG tumors. When tumors reached a volume of ˜600 mm^3, JO-1 or JO-4 was intravenously injected for safety and efficacy studies. […] After one hour post-injection JO-1 and JO-4 concentration reached a plateau with ˜100 ng/ml. We also analyzed hematological parameters after i.v. JO-1 and JO-4 injection.

| Molecule | Effect on TEER [1] | Blood chemistry [2] | Blood cell counts [2] | Time of nadir of lymphocyte and platelet counts [2] [h] | TEER compared to JO-1 ([1]; dimeric affinity-enhanced mutants, TEER at 4 hours, N=3) | Lymphocyte and platelet counts compared with JO-1 ([2]; nadir at 24 hours p.i. and recovery) |
| --- | --- | --- | --- | --- | --- | --- |
| B1 | no effect on the TEER |  |  |  |  |  |
| B2 | rapid decrease in the TEER | did not show abnormal changes | normal except for lymphocyte and platelet number, which decreased early after injection | 24 |  |  |
| B3 |  | did not show abnormal changes | normal except for lymphocyte and platelet number, which decreased early after injection | 24 | significantly higher | significantly lower numbers; also recorded: returned to normal levels faster |
